# According to PMC11417362, “Template-independent synthesis and 3′-end labelling of 2′-modified oligonucleotides with terminal deoxynucleotidyl transferases” (Nucleic Acids Research, 2024):
# B1: bovine TdT (Bos taurus) (protein)
# chain: MDPLCTASSGPRKKRPRQVGASMASPPHDIKFQNLVLFILEKKMGTTRRNFLMELARRKGFRVENELSDSVTHIVAENNSGSEVLEWLQVQNIRASSQLELLDVSWLIESMGAGKPVEITGKHQLVVRTDYSATPNPGFQKTPPLAVKKISQYACQRKTTLNNYNHIFTDAFEILAENSEFKENEVSYVTFMRAASVLKSLPFTIISMKDTEGIPCLGDKVKCIIEEIIEDGESSEVKAVLNDERYQSFKLFTSVFGVGLKTSEKWFRMGFRSLSKIMSDKTLKFTKMQKAGFLYYEDLVSCVTRAEAEAVGVLVKEAVWAFLPDAFVTMTGGFRRGKKIGHDVDFLITSPGSAEDEEQLLPKVINLWEKKGLLLYYDLVESTFEKFKLPSRQVDTLDHFQKCFLILKLHHQRVDSSKSNQQEGKTWKAIRVDLVMCPYENRAFALLGWTGSRQFERDIRRYATHERKMMLDNHALYDKTKRVFLKAESEEEIFAHLGLDYIEPWERNA
# notes: recombinant, plasmid pET30a-bovine TdT, E. coli BL21(DE3)
# Experiments:
# [1] = substrate: O=c1ccn([C@@H]2O[C@H](COP(=O)(O)OP(=O)(O)OP(=O)(O)O)[C@@H](O)[C@H]2F)c(=O)[nH]1; experiment: purified protein, by the assay type; set-up: Steady-state single-nucleotide incorporation into primer FAM-18G, denaturing PAGE band quantification, Michaelis-Menten fit
# Experimental: (§2) The steady-state kinetic experiments were performed as described previously with minor modifications ([61]). A 2× reaction solution was prepared by mixing 200 nM primer FAM-18G, 0–128 μM 2′-modified NTP and 20 mM Mg(OAc)2 in 2× TdT buffer. A 5 μl aliquot of pre-warmed 2× reaction solution was mixed with 5 μl of bovine TdT, MTdT-evo or murine TdT of varying concentration, and incubated at 37°C for a certain time. The reaction was then quenched by the addition of 10 μl of 2× TBE-urea sample buffer and incubation at 95°C for 10 min. The products were analysed with 20% denaturing PAGE gels containing 8 M urea. All gel bands were quantified using Quantity One analysis software (Bio-Rad). Km and kcat values were calculated by fitting the data to the Michaelis–Menten equation with GraphPad Prism 8 software. To quantify the activities of different TdTs for the incorporation of 2′-modified NTPs, steady-state kinetic experiments were carried out.
# [2] = substrate: Cc1cn([C@H]2C[C@H](O)[C@@H](COP(=O)(O)OP(=O)(O)OP(=O)(O)O)O2)c(=O)[nH]c1=O; experiment: purified protein, by the assay type; set-up: Steady-state single-nucleotide incorporation into primer FAM-18G, denaturing PAGE band quantification, Michaelis-Menten fit
# Experimental: as §2
# [3] = substrate: CO[C@@H]1[C@H](O)[C@@H](COP(=O)(O)OP(=O)(O)OP(=O)(O)O)O[C@H]1n1ccc(N)nc1=O; experiment: purified protein, by the assay type; set-up: Steady-state single-nucleotide incorporation into primer FAM-18G, denaturing PAGE band quantification, Michaelis-Menten fit
# Experimental: as §2
# [4] = substrate: CO[C@@H]1[C@H](O)[C@@H](COP(=O)(O)OP(=O)(O)OP(=O)(O)O)O[C@H]1n1cnc2c(=O)[nH]c(N)nc21; experiment: purified protein, by the assay type; set-up: Steady-state single-nucleotide incorporation into primer FAM-18G, denaturing PAGE band quantification, Michaelis-Menten fit
# Experimental: as §2
# purified protein = substrate: Nc1ncnc2c1ncn2[C@H]1C[C@H](O)[C@@H](COP(=O)(O)OP(=O)(O)OP(=O)(O)O)O1; experiment: purified protein; settings: 100 nM ssDNA primer FAM-18G, 10 mM Mg(OAc)2, 1x TdT buffer (100 mM KCl, 30 mM Tris-acetate, 0.05% Triton X-100), pH 7.5, 37°C
# [5] = substrate: O=c1ccn([C@@H]2O[C@H](COP(=O)(O)OP(=O)(O)OP(=O)(O)O)[C@@H](O)[C@@H]2F)c(=O)[nH]1; experiment: steady-state primer extension, denaturing PAGE, Michaelis-Menten fit; type: biochemical, Bos taurus; settings: 100 nM ssDNA primer FAM-18G, 10 mM Mg(OAc)2, 1x TdT buffer (100 mM KCl, 30 mM Tris-acetate, 0.05% Triton X-100), pH 7.5, 37°C
# Text: (§1) steady-state primer extension, denaturing PAGE, Michaelis-Menten fit on bovine TdT
# [6] = substrate: Nc1nc2c(ncn2[C@@H]2O[C@H](COP(=O)(O)OP(=O)(O)OP(=O)(O)O)[C@@H](O)[C@@H]2F)c(=O)[nH]1; experiment: as above; type: biochemical, Bos taurus; settings: 100 nM ssDNA primer FAM-18G, 10 mM Mg(OAc)2, 1x TdT buffer (100 mM KCl, 30 mM Tris-acetate, 0.05% Triton X-100), pH 7.5, 37°C
# Text: as §1
# [7] = substrate: Nc1nc2c(ncn2[C@@H]2O[C@H](COP(=O)(O)OP(=O)(O)OP(=O)(O)O)[C@@H](O)[C@H]2F)c(=O)[nH]1; experiment: as above; type: biochemical, Bos taurus; settings: 100 nM ssDNA primer FAM-18G, 10 mM Mg(OAc)2, 1x TdT buffer (100 mM KCl, 30 mM Tris-acetate, 0.05% Triton X-100), pH 7.5, 37°C
# Text: as §1
# [8] = substrate: Nc1ccn([C@@H]2O[C@H](COP(=O)(O)OP(=O)(O)OP(=O)(O)O)[C@@H](O)[C@@H]2F)c(=O)n1; experiment: as above; type: biochemical, Bos taurus; settings: 100 nM ssDNA primer FAM-18G, 10 mM Mg(OAc)2, 1x TdT buffer (100 mM KCl, 30 mM Tris-acetate, 0.05% Triton X-100), pH 7.5, 37°C
# Text: as §1
# [9] = substrate: Nc1ncnc2c1ncn2[C@@H]1O[C@H](COP(=O)(O)OP(=O)(O)OP(=O)(O)O)[C@@H](O)[C@H]1F; experiment: as above; type: biochemical, Bos taurus; settings: 100 nM ssDNA primer FAM-18G, 10 mM Mg(OAc)2, 1x TdT buffer (100 mM KCl, 30 mM Tris-acetate, 0.05% Triton X-100), pH 7.5, 37°C
# Text: as §1
# [10] = substrate: Nc1ncnc2c1ncn2[C@@H]1O[C@H](COP(=O)(O)OP(=O)(O)OP(=O)(O)O)[C@@H](O)[C@@H]1F; experiment: as above; type: biochemical, Bos taurus; settings: 100 nM ssDNA primer FAM-18G, 10 mM Mg(OAc)2, 1x TdT buffer (100 mM KCl, 30 mM Tris-acetate, 0.05% Triton X-100), pH 7.5, 37°C
# Text: as §1
# [11] = substrate: Nc1ccn([C@H]2C[C@H](O)[C@@H](COP(=O)(O)OP(=O)(O)OP(=O)(O)O)O2)c(=O)n1; experiment: as above; type: biochemical, Bos taurus; settings: 100 nM ssDNA primer FAM-18G, 10 mM Mg(OAc)2, 1x TdT buffer (100 mM KCl, 30 mM Tris-acetate, 0.05% Triton X-100), pH 7.5, 37°C
# Text: as §1
protein,measurement,setting,value
B1,Km,[1],5.33 ± 1.58 µM
same,kcat,[1],0.00267 ± 0.000112 s⁻¹
same,kcat/Km,[1],500 M⁻¹ s⁻¹
same,Km,[2],4.19 ± 0.91 µM
same,kcat,[2],0.0075 ± 0.000833 s⁻¹
same,kcat/Km,[2],1780 M⁻¹ s⁻¹
same,Km,[3],5.87 ± 0.76 µM
same,kcat,[3],0.0004 ± 5.83e-05 s⁻¹
same,kcat/Km,[3],68.2 M⁻¹ s⁻¹
same,Km,[4],6.10 ± 1.50 µM
same,kcat,[4],0.000683 ± 2.17e-05 s⁻¹
same,kcat/Km,[4],112 M⁻¹ s⁻¹
same,Km,purified protein,2.65 ± 0.76 µM
same,kcat,purified protein,0.00517 s⁻¹
same,kcat/Km,purified protein,1950 M⁻¹ s⁻¹
same,Km,[5],2.63 ± 0.77 µM
same,kcat,[5],0.0148 ± 0.00065 s⁻¹
same,kcat/Km,[5],5630 M⁻¹ s⁻¹
same,Km,[6],2.91 ± 0.52 µM
same,kcat,[6],0.0638 ± 0.00417 s⁻¹
same,kcat/Km,[6],22000 M⁻¹ s⁻¹
same,Km,[7],4.03 ± 0.52 µM
same,kcat,[7],0.0182 ± 0.000483 s⁻¹
same,kcat/Km,[7],4500 M⁻¹ s⁻¹
same,Km,[8],2.83 ± 0.69 µM
same,kcat,[8],0.0285 ± 0.00317 s⁻¹
same,kcat/Km,[8],10100 M⁻¹ s⁻¹
same,Km,[9],0.97 ± 0.27 µM
same,kcat,[9],0.00933 ± 0.0011 s⁻¹
same,kcat/Km,[9],9620 M⁻¹ s⁻¹
same,Km,[10],2.23 ± 0.32 µM
same,kcat,[10],0.0443 ± 0.00717 s⁻¹
same,kcat/Km,[10],19800 M⁻¹ s⁻¹
same,Km,[11],3.14 ± 0.46 µM
same,kcat,[11],0.02 ± 0.001 s⁻¹
same,kcat/Km,[11],6370 M⁻¹ s⁻¹
